This note sets out measurements from the Human Domainome abundance scans (Beltran et al. 2025).

B1: Cytoplasmic polyadenylation element-binding protein 2, residues 513 to 575; numbered along this chain, Q7Z5Q1 (parent)
chain: KRVEVKPYVLDDQMCDECQGARCGGKFAPFFCANVTCLQYYCEFCWANIHSRAGREFHKPLVK

± gives the uncertainty stated by the source.

In this data set the parent is B1. Nature of the data set: abundance fitness (aPCA) (normalised: wild type 0, dead -1); higher = more abundant; growth selection in yeast, the domain comes from the species named. Conditions: Homo sapiens.
Regarding KRVEVKWYVLDDQMCDECQGARCGGKFAPFFCANVTCLQYYCEFCWANIHSRAGREFHKPLVK [P7W], the abundance fitness was -0.622 ± 0.058.
For KRVEVKRYVLDDQMCDECQGARCGGKFAPFFCANVTCLQYYCEFCWANIHSRAGREFHKPLVK [P7R] the value was -0.125 ± 0.033; for KRVEVKYYVLDDQMCDECQGARCGGKFAPFFCANVTCLQYYCEFCWANIHSRAGREFHKPLVK [P7Y], -0.405 ± 0.098.
Regarding KRVEVKDYVLDDQMCDECQGARCGGKFAPFFCANVTCLQYYCEFCWANIHSRAGREFHKPLVK [P7D], the abundance fitness stood at 0.132 ± 0.097.
Take KRVEVKEYVLDDQMCDECQGARCGGKFAPFFCANVTCLQYYCEFCWANIHSRAGREFHKPLVK [P7E]: the abundance fitness came to 0.051 ± 0.059.
For KRVEVKKYVLDDQMCDECQGARCGGKFAPFFCANVTCLQYYCEFCWANIHSRAGREFHKPLVK [P7K] the value was 0.046 ± 0.072.
In the case of KRVEVKTYVLDDQMCDECQGARCGGKFAPFFCANVTCLQYYCEFCWANIHSRAGREFHKPLVK [P7T], the abundance fitness was -0.014 ± 0.05.
For KRVEVKVYVLDDQMCDECQGARCGGKFAPFFCANVTCLQYYCEFCWANIHSRAGREFHKPLVK [P7V] the value was -0.735 ± 0.083; for KRVEVKAYVLDDQMCDECQGARCGGKFAPFFCANVTCLQYYCEFCWANIHSRAGREFHKPLVK [P7A], -0.227 ± 0.056; for KRVEVKMYVLDDQMCDECQGARCGGKFAPFFCANVTCLQYYCEFCWANIHSRAGREFHKPLVK [P7M], -0.259 ± 0.064.
For the variant KRVEVKGYVLDDQMCDECQGARCGGKFAPFFCANVTCLQYYCEFCWANIHSRAGREFHKPLVK [P7G], the abundance fitness was -0.141 ± 0.037.
Regarding KRVEVKNYVLDDQMCDECQGARCGGKFAPFFCANVTCLQYYCEFCWANIHSRAGREFHKPLVK [P7N], the abundance fitness was 0.01 ± 0.086.
Consider KRVEVKLYVLDDQMCDECQGARCGGKFAPFFCANVTCLQYYCEFCWANIHSRAGREFHKPLVK [P7L], for which the abundance fitness was -0.579 ± 0.058.
For KRVEVKHYVLDDQMCDECQGARCGGKFAPFFCANVTCLQYYCEFCWANIHSRAGREFHKPLVK [P7H] the value was -0.086 ± 0.072; for KRVEVKQYVLDDQMCDECQGARCGGKFAPFFCANVTCLQYYCEFCWANIHSRAGREFHKPLVK [P7Q], -0.098 ± 0.062; for KRVEVKIYVLDDQMCDECQGARCGGKFAPFFCANVTCLQYYCEFCWANIHSRAGREFHKPLVK [P7I], -1.07 ± 0.32.
As to KRVEVKFYVLDDQMCDECQGARCGGKFAPFFCANVTCLQYYCEFCWANIHSRAGREFHKPLVK [P7F], the abundance fitness is -0.413 ± 0.18.
For KRVEVKPKVLDDQMCDECQGARCGGKFAPFFCANVTCLQYYCEFCWANIHSRAGREFHKPLVK [Y8K] the value was 0.121 ± 0.058; for KRVEVKPRVLDDQMCDECQGARCGGKFAPFFCANVTCLQYYCEFCWANIHSRAGREFHKPLVK [Y8R], 0.064 ± 0.039; for KRVEVKPMVLDDQMCDECQGARCGGKFAPFFCANVTCLQYYCEFCWANIHSRAGREFHKPLVK [Y8M], -0.365 ± 0.087.
KRVEVKPNVLDDQMCDECQGARCGGKFAPFFCANVTCLQYYCEFCWANIHSRAGREFHKPLVK [Y8N]: the abundance fitness was 0.13 ± 0.075.
For KRVEVKPTVLDDQMCDECQGARCGGKFAPFFCANVTCLQYYCEFCWANIHSRAGREFHKPLVK [Y8T] the value was -0.026 ± 0.059.
Take KRVEVKPCVLDDQMCDECQGARCGGKFAPFFCANVTCLQYYCEFCWANIHSRAGREFHKPLVK [Y8C]: the abundance fitness was -0.115 ± 0.08.
For KRVEVKPPVLDDQMCDECQGARCGGKFAPFFCANVTCLQYYCEFCWANIHSRAGREFHKPLVK [Y8P] the value was 0.075 ± 0.047; for KRVEVKPGVLDDQMCDECQGARCGGKFAPFFCANVTCLQYYCEFCWANIHSRAGREFHKPLVK [Y8G], 0.154 ± 0.042; for KRVEVKPQVLDDQMCDECQGARCGGKFAPFFCANVTCLQYYCEFCWANIHSRAGREFHKPLVK [Y8Q], 0.012 ± 0.06.
For the variant KRVEVKPIVLDDQMCDECQGARCGGKFAPFFCANVTCLQYYCEFCWANIHSRAGREFHKPLVK [Y8I], the abundance fitness is -0.026 ± 0.07.
For KRVEVKPHVLDDQMCDECQGARCGGKFAPFFCANVTCLQYYCEFCWANIHSRAGREFHKPLVK [Y8H] the value was -0.036 ± 0.079; for KRVEVKPEVLDDQMCDECQGARCGGKFAPFFCANVTCLQYYCEFCWANIHSRAGREFHKPLVK [Y8E], 0.18 ± 0.053.
For KRVEVKPVVLDDQMCDECQGARCGGKFAPFFCANVTCLQYYCEFCWANIHSRAGREFHKPLVK [Y8V] the value was -0.086 ± 0.044; for KRVEVKPSVLDDQMCDECQGARCGGKFAPFFCANVTCLQYYCEFCWANIHSRAGREFHKPLVK [Y8S], 0.121 ± 0.044; for KRVEVKPAVLDDQMCDECQGARCGGKFAPFFCANVTCLQYYCEFCWANIHSRAGREFHKPLVK [Y8A], 0.01 ± 0.04.
For the variant KRVEAKPYVLDDQMCDECQGARCGGKFAPFFCANVTCLQYYCEFCWANIHSRAGREFHKPLVK [V5A], the abundance fitness was -0.088 ± 0.052.
For the variant KRVEWKPYVLDDQMCDECQGARCGGKFAPFFCANVTCLQYYCEFCWANIHSRAGREFHKPLVK [V5W], the abundance fitness was -0.247 ± 0.052.
For KRVERKPYVLDDQMCDECQGARCGGKFAPFFCANVTCLQYYCEFCWANIHSRAGREFHKPLVK [V5R] the value was 0.005 ± 0.041; for KRVEIKPYVLDDQMCDECQGARCGGKFAPFFCANVTCLQYYCEFCWANIHSRAGREFHKPLVK [V5I], -0.113 ± 0.057.
With KRVEMKPYVLDDQMCDECQGARCGGKFAPFFCANVTCLQYYCEFCWANIHSRAGREFHKPLVK [V5M], the abundance fitness was -0.011 ± 0.073.
For KRVEEKPYVLDDQMCDECQGARCGGKFAPFFCANVTCLQYYCEFCWANIHSRAGREFHKPLVK [V5E] the value was 0.144 ± 0.064.
For KRVEPKPYVLDDQMCDECQGARCGGKFAPFFCANVTCLQYYCEFCWANIHSRAGREFHKPLVK [V5P] the value was 0.167 ± 0.053.
For KRVEYKPYVLDDQMCDECQGARCGGKFAPFFCANVTCLQYYCEFCWANIHSRAGREFHKPLVK [V5Y] the value was -0.141 ± 0.055; for KRVETKPYVLDDQMCDECQGARCGGKFAPFFCANVTCLQYYCEFCWANIHSRAGREFHKPLVK [V5T], 0.006 ± 0.044; for KRVESKPYVLDDQMCDECQGARCGGKFAPFFCANVTCLQYYCEFCWANIHSRAGREFHKPLVK [V5S], 0.105 ± 0.038.
